Measured values as given in patent publication US20110191903A1, “ENGINEERING PLANT RESISTANCE TO DISEASES CAUSED BY PATHOGENS” (Pioneer Hi-Bred International, Inc., priority 2009, published 2011).
Substitutions are numbered along the chain they refer to. Numbers in names are those of the source.

Tests used:
Format in all cases: biochemical, Ceriporiopsis subvermispora
[1] = substrate: O=C(O)C(=O)O; test: Oxalate oxidase kinetics, coupled horse radish peroxidase assay, FG10
Source text: (§1) The E. coli expression system was based on the published protocol of Escutia et al. Escutia et al., Cloning and sequencing of two Ceriporiopsis subvermispora bicupin oxalate oxidase allelic isoforms: implications for the reaction specificity of oxalate oxidases and decarboxylases. (2005). The coding sequence for the mature OXOX enzyme was inserted in E. coli expression vector pET32 (Invitrogen) to include a 6× histidine tag at the C-terminus. The resulting expression plasmid was transformed into E. coli strain BL21Star pLysS (Invitrogen).
(§2) E. coli cultures were grown at 37° C. At optical density 0.4, arabinose was added to a concentration or 0.4%. After another hour of growth at 37° C., MnCl2 was added to 5 mM and IPTG to 1 mM. Cultures were then grown at 25° C. for 16 hours. Cells were harvested by centrifugation at 4000 rpm for 10 min. The supernatant was discarded and cell pellets were kept at −80° C. for at least one hour. Pellets were resuspended in total 40 ml of lysis buffer with 50 mM phosphate buffer pH7, 2 mg/ml protease inhibitor (sigma P-8465), 100 mM KCL, 1/1000 lysozyme, 1/2000 endonuclease, and incubated at 37° C. with shaking for one hour, followed by sonication. Cellular debris was removed by centrifugation and the clarified supernatant was poured into a new tube. Nickel resin (Qiagen) was added. After a short period of incubation, the slurry was poured onto a column and washed with buffer. Purified OXOX protein was eluted from the resin in 50 mM succinate pH 5, 100 mM KCl. The E. coli expression procedure was scalable allowing large scale protein production for kinetic analysis as well as small scale production for high throughput screening of libraries.
(§3) Oxalate oxidase enzymatic activity was determined in a coupled reaction. Oxalate oxidase converts oxalic acid to carbon dioxide and hydrogen peroxide. In the presence of horse radish peroxidase, hydrogen peroxide reacts with 3-methyl-2-benzothiazolinone hydrazone (MBTH) and N,N-dimethylaniline (DMA) to form indamine dye, which can be detected spectrophotmetrically or colorimetrically as described by Laker, M. F., Hoffman, A. F., and Meeuse, J. D. (1980) Clinical Chemistry 26, 827-830. The coupled reaction was used for characterization of oxalate oxidase kinetic properties as well as in a screening procedure to identify oxalate oxidase variants with improved enzymatic properties.
(§4) DNA shuffling was performed as described elsewhere herein. A polymerase chain reaction product corresponding to the OXOX-C coding sequence was fragmented by limited nuclease treatment. Synthetic oligonucleotides encoding sequence diversity from oxalate decarboxylase sequences found in public databases were added. A polymerase chain reaction procedure was performed on the mixture to yield a library of full length OXOX-C coding sequences with additional diversity incorporated. The resulting library was inserted in expression vector pET32, E. coli cells were transformed and protein was expressed, as described in Example 2. A tiered screening strategy was devised based on the OXOX protein expression and enzymatic activity determination procedures described in Examples 2 and 3, respectively. A high throughput screening process based on colorimetric determination of OXOX activity was utilized to identify individual E. coli strains harboring active OXOX variants. These OXOX-active strains were reassayed using quantitative spectrophotometric determination of OXOX activity. […] Three rounds of this iterative screening and selection procedure were completed, and OXOX variants with up to 8-fold improved activity were identified
(§5) More modest improvements in Km and Kcat were observed under lower pH conditions. Coupled reaction was preformed as described in Example 3. Enzyme kinetic parameters were determined by standard methods as described in Segel (1976) Biochemical calculations, 2nd Edition. John Wiley & Sons, London, New York, Sydney, Toronto.

[2] = substrate: O=C(O)C(=O)O; test: Oxalate oxidase kinetics, coupled horse radish peroxidase assay, ALT6 (3-21)
Source text: as §1, §2, §3, §4, §5

[3] = substrate: O=C(O)C(=O)O; test: Oxalate oxidase kinetics, coupled horse radish peroxidase assay, ALT7 (3-25)
Source text: as §1, §2, §3, §4, §5

[4] = substrate: O=C(O)C(=O)O; test: Oxalate oxidase kinetics, coupled horse radish peroxidase assay, ALT1 (WT-Q7)
Source text: as §1, §2, §3
(§6) Three potential glycosylations sites with the consensus amino acid sequence N—X—(S/T) were identified in OXOX-C at amino acid positions 60, 384 and 430 in SEQ ID NO:27. Site-directed mutagenesis was used to alter these sites (Quickchange, Stratagene). Every possible amino acid substitution was generated at the third amino acid position of each potential glyosylation site. The resulting variants were screened for activity using the enzymatic assay described in Example 3. […] These variants correspond to sequences OXOX-C-MOD1-ALT1 (SEQ ID NO:23) and OXOX-C-MOD1-ALT2 (SEQ ID NO:24).
as §5

[5] = substrate: O=C(O)C(=O)O; test: Oxalate oxidase kinetics, coupled horse radish peroxidase assay, ALT2 (glyc-)
Source text: as §1, §2, §3, §6, §5

[6] = substrate: O=C(O)C(=O)O; test: Oxalate oxidase kinetics, coupled horse radish peroxidase assay, ALT5 (2-6)
Source text: as §1, §2, §3, §4, §5

[7] = substrate: O=C(O)C(=O)O; test: Oxalate oxidase kinetics, coupled horse radish peroxidase assay, ALT3 (1-8)
Source text: as §1, §2, §3, §4, §5

[8] = substrate: O=C(O)C(=O)O; test: Oxalate oxidase kinetics, coupled horse radish peroxidase assay, ALT4 (1-23)
Source text: as §1, §2, §3, §4, §5

B1: Ceriporiopsis subvermispora oxalate oxidase OXOX-C variant FG10 (3-FG10), D53N/I60E/E65Q/K72E/S115T/Q171E/R174K/M192V/I278V/Y282F/Y359F/V399I/G436A plus S437, … (protein)
chain: RPTENGPQIVIANNAGTYLPVLRGSGTKSSSAADATQTVPFASDDPNPRLWNIDTKNLEKVTPQRGQLGAEILGPDNLPIDLQNADTLAPPTTDSGSIPNPKWPFALSHNTLYTGGWVRIQNDEVMPIAKAMAGVNMRLEAGAIRELHWHNTPEWAYILKGTTQITAVDENGKNYLANVGPGDLWYFPEGVPHSLQGTDANNEGSEFLLIFPDGTFDSSNQFMITDWLAHTPKDVIAKNFGVDISEFDRLPSHDLYIFPGVAPPLDAKAPEDPQGTVPLPFSFEFSKVKPTQYAGGTVKIADTRTFPIAKTISVAEVTVEPGAMRELHWHPTEDEWTFFIEGQARVTIFAGQSNAQTFDYQGGDIAYIPTAWGHYVENSGNTQLRFLEIFNSPLFEDISLAQWIANTPPAIVKATLQLSDEVINTLNKQKAFVVASD
notes: C-terminal 6xHis, pET32, E. coli, nickel purified
Km ([1]; other: pH 3.8, pH 3.8): 400 µM
kcat ([1]; other: pH 3.8, pH 3.8): 8.01 s⁻¹
Km ([1]; other: pH 4.8, pH 4.8): 1830 µM
kcat ([1]; other: pH 4.8, pH 4.8): 6.00 s⁻¹
Km ([1]; other: pH 5.8, pH 5.8): 5900 µM
kcat ([1]; other: pH 5.8, pH 5.8): 2.65 s⁻¹

B2: Ceriporiopsis subvermispora oxalate oxidase OXOX-C variant ALT6 (3-21), L23P/I60E/T63Q/I99V/L177M/L196I/F259Y/I278V/F339Y/F387Y/F396Y relative to OXOX-C-ALT1 … (protein)
chain: RPTENGPQIVIANNAGTYLPVPRGSGTKSSSAADATQTVPFASDDPNPRLWDIDTKNLEKVQPERGQLGAKILGPDNLPIDLQNADTLAPPTTDSGSVPNPKWPFALSHNTLYSGGWVRIQNDEVMPIAKAMAGVNMRLEAGAIRELHWHNTPEWAYILKGTTQITAVDQNGRNYMANVGPGDLWYFPEGMPHSIQGTDANNEGSEFLLIFPDGTFDSSNQFMITDWLAHTPKDVIAKNFGVDISEFDRLPSHDLYIYPGVAPPLDAKAPEDPQGTVPLPYSFEFSKVKPTQYAGGTVKIADTRTFPIAKTISVAEVTVEPGAMRELHWHPTEDEWTYFIEGQARVTIFAGQSNAQTYDYQGGDIAYIPTAWGHYVENSGNTQLRYLEIFNSPLYEDVSLAQWIANTPPAIVKATLQLSDEVINTLNKQKAFVVG
Km ([2]; other: pH 3.8, pH 3.8): 120 µM
kcat ([2]; other: pH 3.8, pH 3.8): 2.79 s⁻¹
Km ([2]; other: pH 4.8, pH 4.8): 550 µM
kcat ([2]; other: pH 4.8, pH 4.8): 2.61 s⁻¹
Km ([2]; other: pH 5.8, pH 5.8): 1460 µM
kcat ([2]; other: pH 5.8, pH 5.8): 1.72 s⁻¹

B3: Ceriporiopsis subvermispora oxalate oxidase OXOX-C variant ALT7 (3-25), L23P/I54M/I60E/I99V/W118Y/P154A/I159V/L177M/D218N/F259Y/I278V/F339Y/Y359F/G363A/F396Y … (protein)
chain: B2 chain with I53M, Q62T, W117Y, P153A, I158V, I195L, D217N, Y358F, G362A, Y386F
Km ([3]; other: pH 3.8, pH 3.8): 450 µM
kcat ([3]; other: pH 3.8, pH 3.8): 12.01 s⁻¹
Km ([3]; other: pH 4.8, pH 4.8): 2170 µM
kcat ([3]; other: pH 4.8, pH 4.8): 8.28 s⁻¹
Km ([3]; other: pH 5.8, pH 5.8): 7840 µM
kcat ([3]; other: pH 5.8, pH 5.8): 5.85 s⁻¹

B4: Ceriporiopsis subvermispora oxalate oxidase OXOX-C variant ALT1 (WT-Q7), glycosylation minus, T60I/T384Q/S430Q relative to SEQ ID NO: 37, SEQ ID NO: 23 … (protein)
chain: RPTENGPQIVIANNAGTYLPVLRGSGTKSSSAADATQTVPFASDDPNPRLWDIDTKNLIKVTPERGQLGAKILGPDNLPIDLQNADTLAPPTTDSGSIPNPKWPFALSHNTLYSGGWVRIQNDEVMPIAKAMAGVNMRLEAGAIRELHWHNTPEWAYILKGTTQITAVDQNGRNYLANVGPGDLWYFPEGMPHSLQGTDANNEGSEFLLIFPDGTFDSSNQFMITDWLAHTPKDVIAKNFGVDISEFDRLPSHDLYIFPGVAPPLDAKAPEDPQGTIPLPYSFEFSKVKPTQYAGGTVKIADTRTFPIAKTISVAEVTVEPGAMRELHWHPTEDEWTFFIEGQARVTIFAGQSNAQTYDYQGGDIAYIPTAWGHYVENSGNTQLRFLEIFNSPLFEDVSLAQWIANTPPAIVKATLQLSDEVINTLNKQKAFVVG
notes: glycosylation sites removed
Km ([4]; other: pH 3.8, pH 3.8): 330 µM
kcat ([4]; other: pH 3.8, pH 3.8): 5.00 s⁻¹
Km ([4]; other: pH 4.8, pH 4.8): 1210 µM
kcat ([4]; other: pH 4.8, pH 4.8): 2.70 s⁻¹
Km ([4]; other: pH 5.8, pH 5.8): 6010 µM
kcat ([4]; other: pH 5.8, pH 5.8): 0.85 s⁻¹

B5: Ceriporiopsis subvermispora oxalate oxidase OXOX-C variant ALT2 (glyc-), glycosylation minus, T60R/T384V/S430D relative to SEQ ID NO: 37, SEQ ID NO: 24 … (protein)
chain: B4 chain with I59R, Q383V, Q429D
notes: glycosylation sites removed
Km ([5]; other: pH 3.8, pH 3.8): 280 µM
kcat ([5]; other: pH 3.8, pH 3.8): 5.60 s⁻¹
Km ([5]; other: pH 4.8, pH 4.8): 1240 µM
kcat ([5]; other: pH 4.8, pH 4.8): 2.99 s⁻¹
Km ([5]; other: pH 5.8, pH 5.8): 5900 µM
kcat ([5]; other: pH 5.8, pH 5.8): 0.91 s⁻¹

B6: Ceriporiopsis subvermispora oxalate oxidase OXOX-C variant ALT5 (2-6), I54M/I60E/I99V/W118Y/F259Y/I278V/F339Y/Y359F/F396Y relative to OXOX-C-ALT1 (SEQ ID NO: … (protein)
chain: B2 chain with P22L, I53M, Q62T, W117Y, M176L, I195L, Y358F, Y386F
Km ([6]; other: pH 3.8, pH 3.8): 460 µM
kcat ([6]; other: pH 3.8, pH 3.8): 10.01 s⁻¹
Km ([6]; other: pH 4.8, pH 4.8): 2320 µM
kcat ([6]; other: pH 4.8, pH 4.8): 7.06 s⁻¹
Km ([6]; other: pH 5.8, pH 5.8): 8910 µM
kcat ([6]; other: pH 5.8, pH 5.8): 2.44 s⁻¹

B7: Ceriporiopsis subvermispora oxalate oxidase OXOX-C variant ALT3 (1-8), I54M/I99V/W118Y/F259Y/I278V/F339Y/F396Y relative to OXOX-C-ALT1 (SEQ ID NO: 35), SEQ ID … (protein)
chain: B4 chain with I53M, I98V, W117Y, F258Y, I277V, F338Y, F395Y
Km ([7]; other: pH 3.8, pH 3.8): 310 µM
kcat ([7]; other: pH 3.8, pH 3.8): 4.69 s⁻¹
Km ([7]; other: pH 4.8, pH 4.8): 1700 µM
kcat ([7]; other: pH 4.8, pH 4.8): 3.21 s⁻¹
Km ([7]; other: pH 5.8, pH 5.8): 8380 µM
kcat ([7]; other: pH 5.8, pH 5.8): 1.36 s⁻¹

B8: Ceriporiopsis subvermispora oxalate oxidase OXOX-C variant ALT4 (1-23), W118Y/I166V/F259Y/I278V/Y282F/F339Y/F396Y relative to OXOX-C-ALT1 (SEQ ID NO: 35), SEQ … (protein)
chain: B4 chain with W117Y, I165V, F258Y, I277V, Y281F, F338Y, F395Y
Km ([8]; other: pH 3.8, pH 3.8): 350 µM
kcat ([8]; other: pH 3.8, pH 3.8): 4.08 s⁻¹
Km ([8]; other: pH 4.8, pH 4.8): 1320 µM
kcat ([8]; other: pH 4.8, pH 4.8): 2.70 s⁻¹
Km ([8]; other: pH 5.8, pH 5.8): 5510 µM
kcat ([8]; other: pH 5.8, pH 5.8): 0.85 s⁻¹
